By Kd is commonly meant the equilibrium constant for the complex coming apart. A higher Kd goes with a looser complex.

Where two headings read alike, the source gives them in different places.

Data on 20 molecules can be found in US20210179716A1 (Pfizer, published 2021).

Assay [1] addresses T1, mouse PD-L1 protein (mouse, UniProt Q9EP73 19-238).
T1 construct: also called mPD-L1
Briefly: column 'Cross with mouse?'; method not stated.

The target of assay [2] is T2, human PD-L1 protein (human, UniProt Q9NZQ7 19-238).
T2 construct: Soluble protein used for the KD measurements; construct not described; also called hPD-L1; CD274
Kind of assay: half-life of the complex; method not stated.

For assay [3], the target named is T3, cynomolgus PD-L1 protein (cynomolgus monkey, UniProt G7PSE7 19-238).
T3 construct: also called cyPD-L1; Cyno PD-L1
Briefly: half-life of the complex; method not stated.

For assay [4], the target named is T2, human PD-L1 protein. Kind of assay: KD; method not stated.
The target in assay [5] is T3, cynomolgus PD-L1 protein. Briefly: KD; method not stated.
Assay [6] has as its target T2, human PD-L1 protein. Briefly: KD; method not stated. The source holds these as a separate data set.
Assay [7] deals with T3, cynomolgus PD-L1 protein. Briefly: KD; method not stated. The source holds these as a separate data set.
The target of assay [8] is T2, human PD-L1 protein. Briefly: half-life of the complex; method not stated. The source holds these as a separate data set.
The target of assay [9] is T3, cynomolgus PD-L1 protein. Kind of assay: half-life of the complex; method not stated. The source holds these as a separate data set.
For assay [10], the target named is T4, human CD47 protein (human, UniProt Q08722 19-139, limits assumed).
T4 construct: Soluble protein used for the KD measurements; construct not described; also called hCD47; CD47 (human)
Briefly: half-life of the complex; method not stated.

Assay [11] deals with T5, cynomolgus CD47 protein (cynomolgus monkey, UniProt A0A2K5X523 19-139).
T5 construct: also called cyCD47; Cyno CD47
Kind of assay: half-life of the complex; method not stated.

Assay [12] has as its target T4, human CD47 protein. Briefly: KD; method not stated.
The target of assay [13] is T5, cynomolgus CD47 protein. Briefly: KD; method not stated.
In assay [14] the target is T4, human CD47 protein. Briefly: KD; method not stated. This is another data set of the same source.
The target of assay [15] is T5, cynomolgus CD47 protein. Briefly: KD; method not stated. The source holds these as a separate data set.
For assay [16], the target named is T2, human PD-L1 protein. Kind of assay: KD; method not stated. The source holds these as a separate data set.
Assay [17] deals with T3, cynomolgus PD-L1 protein. Kind of assay: KD; method not stated. This is another data set of the same source.
Assay [18] deals with T1, mouse PD-L1 protein. Kind of assay: KD; method not stated.

T1 sequence (Q9EP73 19-238 limits assumed): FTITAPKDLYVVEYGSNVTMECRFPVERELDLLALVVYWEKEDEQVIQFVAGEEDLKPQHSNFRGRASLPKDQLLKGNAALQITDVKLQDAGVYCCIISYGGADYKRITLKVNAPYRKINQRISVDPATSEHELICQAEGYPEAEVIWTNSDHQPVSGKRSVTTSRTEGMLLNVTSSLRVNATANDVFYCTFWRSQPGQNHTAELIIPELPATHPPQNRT
T4 sequence (Q08722 19-139 limits assumed): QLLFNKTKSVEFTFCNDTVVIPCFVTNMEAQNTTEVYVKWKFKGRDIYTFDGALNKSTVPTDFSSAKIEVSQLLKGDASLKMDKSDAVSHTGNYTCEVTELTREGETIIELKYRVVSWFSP
T3 sequence (G7PSE7 entry or part of it): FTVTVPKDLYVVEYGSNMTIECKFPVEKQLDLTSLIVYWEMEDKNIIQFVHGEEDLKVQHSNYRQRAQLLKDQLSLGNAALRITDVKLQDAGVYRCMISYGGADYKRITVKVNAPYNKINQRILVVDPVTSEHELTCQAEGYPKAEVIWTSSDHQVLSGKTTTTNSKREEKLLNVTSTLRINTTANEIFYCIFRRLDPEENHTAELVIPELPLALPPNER
T2 sequence (Q9NZQ7 19-238 limits assumed): as the sequence (G7PSE7 entry or part of it) above, with T33A, S34A, N62S, Q68R, R82Q, L173F, A185T, I192T, L215H counted along it

B1: PDL1_P04D09_parent (antibody, V domains shown)
VH: EVQLLESGGGLVQPGGSLRLSCAASGFTFSSYAMSWVRQAPGKGLEWVSAIGVRGGITYYADSVKGRFTISRDNSKNTLYLQMNSLRAEDTAVYYCARERSVGELVGIDWMDHWGQGTLVTVSS
VL: not shown
With B1, the Kd is 20.4 nM in [1], 0.56 nM in [4] and 1.15 nM in [5]. The T1/2 in [2] is 43.6 min; in assay [3] it was 20.1 min.

B2: PDL1_P04D09_113 (antibody, V domains shown)
VH: EVQLLESGGGLVQPGGSLRLSCAASGFTFSSYAMSWVRQAPGKGLEWVSAIGVRGGITYYADSVKGRFTISRDNSKNTLYLQMNSLRAEDTAVYYCARERSVGELVGIDQMDHWGQGTLVTVSS
VL: not shown
For B2, the Kd in [6] and in assay [7] was 1.7 nM in each case. The values for the T1/2 in [8] and in [9] were 22.2 min and 23.4 min, respectively.

B3: CD47_P01A08_parent (antibody, V domains shown)
VH: QVQLVQSGAEVKKPGSSVKVSCKASGYTFSNYAITWVRQAPGQGLEWMGGISPIFGTANYAQKFQGRVTITADESTSTAYMELSSLRSEDTAVYYCARDGGRSSDGGWRGAGMDYWGQGTLVTVSS
VL: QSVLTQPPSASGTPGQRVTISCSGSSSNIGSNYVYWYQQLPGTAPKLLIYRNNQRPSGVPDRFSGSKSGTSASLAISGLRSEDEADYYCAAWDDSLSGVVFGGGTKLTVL
Consider B3, for which the figures for the T1/2 in [10] and in [11] were 21.3 min and 20.2 min, respectively. Besides, the figures for the Kd in assay [12] and in assay [13] were 1.72 nM and 2.08 nM, respectively.

B4: CD47_P01A11_497 (antibody, V domains shown)
VH: QVQLVQSGAEVKKPGSSVKVSCKASGGTFTSYAISWVRQAPGQGLEWMGGISPIFGTANYAQKFQGRVTITADESTSTAYMELSSLRSEDTAVYYCARDAGRSSDVGWYVGALDVWGQGTLVTVSS
VL: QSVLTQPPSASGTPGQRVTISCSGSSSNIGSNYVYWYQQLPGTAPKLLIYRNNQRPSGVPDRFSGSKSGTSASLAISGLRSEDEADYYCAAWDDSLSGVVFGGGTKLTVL
notes: Monospecific antibody
Consider B4, for which the Kd was determined as 497 nM in [14] and 704 nM in [15].

B5: PDL1_P06A09_parent (antibody, V domains shown)
VH: EVQLVESGGGLVKPGGSLRLSCAASGFTFSNAWMNWVRQAPGKGLEWVGRIKSESDGGTTDYAAPVKGRFTISRDDSKNTLYLQMNSLKTEDTAVYYCTTDYRIDDWGYPYPGMDYWGQGTLVTVSS
VL: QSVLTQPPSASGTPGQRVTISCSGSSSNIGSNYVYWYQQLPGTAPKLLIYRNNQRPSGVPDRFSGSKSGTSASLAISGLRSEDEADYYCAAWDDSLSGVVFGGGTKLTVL
Take B5: the Kd in assay [1] came to 113 nM; in assay [4], 2.97 nM; in assay [5], 5.75 nM. The T1/2 amounted to 5.13 min in [2] and 2.79 min in [3].

B6: CD47_P14D04_parent (antibody, V domains shown)
VH: EVQLLESGGGLVQPGGSLRLSCAASGFSFSTFTMNWVRQAPGKGLEWVSTISGTGGNTYYADSVKGRFTISRDNSKNTLYLQMNSLRAEDTAVYYCARRRSTVGSNGHSYWFDYWGQGTLVTVSS
VL: not shown
Turning to B6, the figures for the T1/2 in assay [10] and in assay [11] were 3.6 min and 2.52 min, respectively. Also, the Kd in assay [12] amounted to 6.39 nM; in [13], 9.7 nM.

B7: PDL1_P06B05_parent (antibody, V domains shown)
VH: EVQLVESGGGLVKPGGSLRLSCAASGFTFSNAWMNWVRQAPGKGLEWVGRIKTKADGGTTDYAAPVKGRFTISRDDSKNTLYLQMNSLKTEDTAVYYCTTDPGSYWDSVYGGMDYWGQGTLVTVSS
VL: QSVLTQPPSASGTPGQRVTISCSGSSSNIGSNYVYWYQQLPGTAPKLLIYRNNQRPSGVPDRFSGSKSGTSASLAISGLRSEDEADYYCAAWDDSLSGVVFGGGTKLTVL
B7: the Kd worked out at 207 nM in assay [1]; 2.36 nM in [16]; 3.11 nM in assay [17]; 4.42 nM in assay [4]; 8.07 nM in assay [5]. The T1/2 in [2] worked out at 28.2 min; in assay [3], 10.2 min.

B8: P06B05_S104A (antibody, V domains shown)
VH: EVQLVESGGGLVKPGGSLRLSCAASGFTFSNAWMNWVRQAPGKGLEWVGRIKTKADGGTTDYAAPVKGRFTISRDDSKNTLYLQMNSLKTEDTAVYYCTTDPGAYWDSVYGGMDYWGQGTLVTVSS
VL: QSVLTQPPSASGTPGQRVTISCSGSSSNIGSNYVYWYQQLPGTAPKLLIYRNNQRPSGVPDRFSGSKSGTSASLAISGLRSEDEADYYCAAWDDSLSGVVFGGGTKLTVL
notes: Variant of P06B05
For B8, the dissociation constant (Kd) is 3.5 nM in assay [16] and 3.93 nM in assay [17].

B9: PDL1_P06B05_245 (antibody, V domains shown)
VH: EVQLVESGGGLVKPGGSLRLSCAASGFTFSNAWMNWVRQAPGKGLEWVGRIKTKADGGTTDYAAPVKGRFTISRDDSKNTLYLQMNSLKTEDTAVYYCTTDPGEYWDSVYGGMDYWGQGTLVTVSS
VL: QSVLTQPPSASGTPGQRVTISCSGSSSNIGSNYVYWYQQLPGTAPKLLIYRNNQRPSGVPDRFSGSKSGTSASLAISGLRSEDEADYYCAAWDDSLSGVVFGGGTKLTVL
notes: Monospecific antibody; also called anti-PD-L1 antibody P06B05_245
Turning to B9, the Kd in assay [6] and in [7] was 1.6 nM throughout. Besides, the T1/2 in assay [8] was found to be 23.4 min; in assay [9] it was 23.7 min.

B10: P06B05_S104Y (antibody, V domains shown)
VH: EVQLVESGGGLVKPGGSLRLSCAASGFTFSNAWMNWVRQAPGKGLEWVGRIKTKADGGTTDYAAPVKGRFTISRDDSKNTLYLQMNSLKTEDTAVYYCTTDPGYYWDSVYGGMDYWGQGTLVTVSS
VL: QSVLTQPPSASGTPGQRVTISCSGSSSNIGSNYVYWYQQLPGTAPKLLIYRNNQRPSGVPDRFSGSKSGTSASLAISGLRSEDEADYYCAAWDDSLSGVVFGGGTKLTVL
notes: Variant of P06B05
In the case of B10, the Kd in assay [16] stood at 9.75 nM; in assay [17], 5.79 nM.

B11: P06B05_G112S (antibody, V domains shown)
VH: EVQLVESGGGLVKPGGSLRLSCAASGFTFSNAWMNWVRQAPGKGLEWVGRIKTKADGGTTDYAAPVKGRFTISRDDSKNTLYLQMNSLKTEDTAVYYCTTDPGSYWDSVYGSMDYWGQGTLVTVSS
VL: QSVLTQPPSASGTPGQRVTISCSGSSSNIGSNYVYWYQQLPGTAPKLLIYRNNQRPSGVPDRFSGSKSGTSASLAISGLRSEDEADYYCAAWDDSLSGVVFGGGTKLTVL
notes: Variant of P06B05
On to B11, for which the figures for the Kd in [16], in [18] and in [17] were 1.69 nM, 77.7 nM and 1.74 nM, respectively.

B12: P06B05_S104I (antibody, V domains shown)
VH: EVQLVESGGGLVKPGGSLRLSCAASGFTFSNAWMNWVRQAPGKGLEWVGRIKTKADGGTTDYAAPVKGRFTISRDDSKNTLYLQMNSLKTEDTAVYYCTTDPGIYWDSVYGGMDYWGQGTLVTVSS
VL: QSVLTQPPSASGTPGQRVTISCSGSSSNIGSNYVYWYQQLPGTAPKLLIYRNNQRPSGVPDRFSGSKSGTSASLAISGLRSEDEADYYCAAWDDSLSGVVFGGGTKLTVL
notes: Variant of P06B05
As to B12, the Kd is under 0.74 nM in assay [16] and 0.99 nM in [17].

B13: P06B05_S104H (antibody, V domains shown)
VH: EVQLVESGGGLVKPGGSLRLSCAASGFTFSNAWMNWVRQAPGKGLEWVGRIKTKADGGTTDYAAPVKGRFTISRDDSKNTLYLQMNSLKTEDTAVYYCTTDPGHYWDSVYGGMDYWGQGTLVTVSS
VL: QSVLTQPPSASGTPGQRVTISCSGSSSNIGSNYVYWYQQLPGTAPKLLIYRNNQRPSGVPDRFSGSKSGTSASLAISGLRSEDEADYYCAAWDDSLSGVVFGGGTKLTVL
notes: Variant of P06B05
For the molecule B13, the Kd in assay [16] is 7.9 nM; in assay [17] it was 6.11 nM.

B14: P06B05_V109S (antibody, V domains shown)
VH: EVQLVESGGGLVKPGGSLRLSCAASGFTFSNAWMNWVRQAPGKGLEWVGRIKTKADGGTTDYAAPVKGRFTISRDDSKNTLYLQMNSLKTEDTAVYYCTTDPGSYWDSSYGGMDYWGQGTLVTVSS
VL: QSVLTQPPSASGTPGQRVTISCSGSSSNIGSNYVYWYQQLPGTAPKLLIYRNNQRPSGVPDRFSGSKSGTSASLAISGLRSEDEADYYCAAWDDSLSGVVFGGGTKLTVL
notes: Variant of P06B05
Turning to B14, the Kd was 76.5 nM in assay [16] and over 100 nM in assay [17].

B15: P06B05_D56E_G57A (antibody, V domains shown)
VH: EVQLVESGGGLVKPGGSLRLSCAASGFTFSNAWMNWVRQAPGKGLEWVGRIKTKAEAGTTDYAAPVKGRFTISRDDSKNTLYLQMNSLKTEDTAVYYCTTDPGSYWDSVYGGMDYWGQGTLVTVSS
VL: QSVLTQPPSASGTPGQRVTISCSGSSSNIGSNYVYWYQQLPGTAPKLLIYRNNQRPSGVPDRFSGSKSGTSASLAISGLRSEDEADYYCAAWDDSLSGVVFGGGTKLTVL
notes: Variant of P06B05
On to B15, for which the Kd is 95.5 nM in [16], over 1500 nM in assay [18] and 92.2 nM in assay [17].

B16: P06B05_G103I (antibody, V domains shown)
VH: EVQLVESGGGLVKPGGSLRLSCAASGFTFSNAWMNWVRQAPGKGLEWVGRIKTKADGGTTDYAAPVKGRFTISRDDSKNTLYLQMNSLKTEDTAVYYCTTDPISYWDSVYGGMDYWGQGTLVTVSS
VL: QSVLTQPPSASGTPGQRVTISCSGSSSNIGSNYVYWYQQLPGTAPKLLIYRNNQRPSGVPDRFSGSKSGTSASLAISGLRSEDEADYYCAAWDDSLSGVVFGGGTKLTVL
notes: Variant of P06B05
With B16, the Kd in [16] is 8.06 nM; in assay [17], 8.11 nM.

B17: P06B05_M113L (antibody, V domains shown)
VH: EVQLVESGGGLVKPGGSLRLSCAASGFTFSNAWMNWVRQAPGKGLEWVGRIKTKADGGTTDYAAPVKGRFTISRDDSKNTLYLQMNSLKTEDTAVYYCTTDPGSYWDSVYGGLDYWGQGTLVTVSS
VL: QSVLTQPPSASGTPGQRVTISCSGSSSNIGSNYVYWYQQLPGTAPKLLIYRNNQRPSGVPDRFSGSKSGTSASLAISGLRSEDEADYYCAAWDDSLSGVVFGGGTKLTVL
notes: Variant of P06B05
As for B17, the Kd in assay [16] was 6.82 nM; in assay [17], 6.55 nM.

B18: P06B05_S104E (antibody, V domains shown)
VH: EVQLVESGGGLVKPGGSLRLSCAASGFTFSNAWMNWVRQAPGKGLEWVGRIKTKADGGTTDYAAPVKGRFTISRDDSKNTLYLQMNSLKTEDTAVYYCTTDPGEYWDSVYGGMDYWGQGTLVTVSS
VL: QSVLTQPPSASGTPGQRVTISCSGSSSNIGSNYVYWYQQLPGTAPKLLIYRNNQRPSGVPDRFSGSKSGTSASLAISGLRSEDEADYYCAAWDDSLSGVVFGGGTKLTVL
notes: Variant of P06B05
Take B18: the Kd in [16] was found to be 0.8 nM; in assay [18] it was 23.1 nM; in assay [17], 0.45 nM.

B19: P06B05_G112A (antibody, V domains shown)
VH: EVQLVESGGGLVKPGGSLRLSCAASGFTFSNAWMNWVRQAPGKGLEWVGRIKTKADGGTTDYAAPVKGRFTISRDDSKNTLYLQMNSLKTEDTAVYYCTTDPGSYWDSVYGAMDYWGQGTLVTVSS
VL: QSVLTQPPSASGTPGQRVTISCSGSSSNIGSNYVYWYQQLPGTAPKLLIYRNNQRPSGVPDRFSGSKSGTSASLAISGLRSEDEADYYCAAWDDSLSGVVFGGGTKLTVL
notes: Variant of P06B05
Regarding B19, the Kd in assay [16] was 3.71 nM; in assay [18] it was 131 nM; in assay [17] it was 3.72 nM.

B20: P06B05_Y105H (antibody, V domains shown)
VH: EVQLVESGGGLVKPGGSLRLSCAASGFTFSNAWMNWVRQAPGKGLEWVGRIKTKADGGTTDYAAPVKGRFTISRDDSKNTLYLQMNSLKTEDTAVYYCTTDPGSHWDSVYGGMDYWGQGTLVTVSS
VL: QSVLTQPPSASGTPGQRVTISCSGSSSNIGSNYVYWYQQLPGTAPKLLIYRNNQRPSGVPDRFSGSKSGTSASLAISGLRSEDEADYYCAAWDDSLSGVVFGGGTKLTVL
notes: Variant of P06B05
As for B20, the Kd in assay [16] was 12.8 nM; in assay [17], 6.58 nM.
